# Test results taken from patent publication US20140072613A1, “Compositions and Methods for Treating Cutaneous Scarring” (priority 2012, published 2014).
# What was measured:
# Assay in all cases: biochemical
# Assay type in all cases: biochemical
# [1] = target: 266 human kinases (Homo sapiens, UniProt P68400); conditions: CK2(h); 100 μM
# Summary of the method: (§1)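 Inhibition was judged from reduced transfer of labelled phosphate from ATP to a positively charged substrate, which was captured on a negatively charged membrane and quantified by scintillation counting against a 100% activity control.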
# [2] = target: 266 human kinases (Homo sapiens, UniProt P12931, T341M); conditions: Src(T341M)(h); 100 μM
# Summary of the method: as §1
# [3] = target: 266 human kinases (Homo sapiens, UniProt Q9BYP7); conditions: WNK3(h); 100 μM
# Summary of the method: as §1
# [4] = target: 266 human kinases (Homo sapiens, UniProt P08581); conditions: Met(h); 100 μM
# Summary of the method: as §1
# [5] = target: 266 human kinases (Homo sapiens, UniProt Q14680); conditions: MELK(h); 100 μM
# Summary of the method: as §1
# [6] = target: T1, 266 human kinases (Homo sapiens, UniProt Q8TDC3); conditions: BrSK1(h); 100 μM
# T1 sequence (Q8TDC3 1-778): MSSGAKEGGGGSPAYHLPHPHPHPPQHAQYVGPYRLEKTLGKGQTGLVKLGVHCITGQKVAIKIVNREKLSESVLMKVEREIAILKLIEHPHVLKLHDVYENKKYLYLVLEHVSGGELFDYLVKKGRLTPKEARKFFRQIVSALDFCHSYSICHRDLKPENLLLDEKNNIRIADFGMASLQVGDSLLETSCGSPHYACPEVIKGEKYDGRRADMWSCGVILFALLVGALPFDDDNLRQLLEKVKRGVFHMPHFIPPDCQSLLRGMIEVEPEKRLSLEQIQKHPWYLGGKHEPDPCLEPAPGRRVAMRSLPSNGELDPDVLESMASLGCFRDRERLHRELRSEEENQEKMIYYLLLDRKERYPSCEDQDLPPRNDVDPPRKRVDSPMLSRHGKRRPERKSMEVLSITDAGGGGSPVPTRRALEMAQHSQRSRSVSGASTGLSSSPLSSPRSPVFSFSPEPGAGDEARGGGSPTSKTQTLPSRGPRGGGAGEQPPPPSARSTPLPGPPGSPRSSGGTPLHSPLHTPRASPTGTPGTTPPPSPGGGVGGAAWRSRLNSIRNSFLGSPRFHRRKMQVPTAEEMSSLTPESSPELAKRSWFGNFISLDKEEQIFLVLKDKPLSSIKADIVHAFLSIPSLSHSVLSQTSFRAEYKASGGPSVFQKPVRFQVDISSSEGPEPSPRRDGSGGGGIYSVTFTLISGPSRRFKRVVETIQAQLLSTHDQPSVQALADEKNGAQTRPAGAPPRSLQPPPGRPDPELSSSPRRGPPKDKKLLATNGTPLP
# Summary of the method: as §1
# [7] = target: 266 human kinases (Homo sapiens, UniProt P08581, Y1230C); conditions: Met(Y1248C)(h); 100 μM
# Summary of the method: as §1
# [8] = target: 266 human kinases (Homo sapiens, UniProt P50613); conditions: CDK7/cyclinH/MAT1(h); 100 μM
# Summary of the method: as §1
# [9] = target: 266 human kinases (Homo sapiens, UniProt P08581, Y1230D); conditions: Met(Y1248D)(h); 100 μM
# Summary of the method: as §1
# [10] = target: T2, 266 human kinases (Homo sapiens, UniProt Q8NG66); conditions: NEK11(h); 100 μM
# T2 sequence (Q8NG66 1-645): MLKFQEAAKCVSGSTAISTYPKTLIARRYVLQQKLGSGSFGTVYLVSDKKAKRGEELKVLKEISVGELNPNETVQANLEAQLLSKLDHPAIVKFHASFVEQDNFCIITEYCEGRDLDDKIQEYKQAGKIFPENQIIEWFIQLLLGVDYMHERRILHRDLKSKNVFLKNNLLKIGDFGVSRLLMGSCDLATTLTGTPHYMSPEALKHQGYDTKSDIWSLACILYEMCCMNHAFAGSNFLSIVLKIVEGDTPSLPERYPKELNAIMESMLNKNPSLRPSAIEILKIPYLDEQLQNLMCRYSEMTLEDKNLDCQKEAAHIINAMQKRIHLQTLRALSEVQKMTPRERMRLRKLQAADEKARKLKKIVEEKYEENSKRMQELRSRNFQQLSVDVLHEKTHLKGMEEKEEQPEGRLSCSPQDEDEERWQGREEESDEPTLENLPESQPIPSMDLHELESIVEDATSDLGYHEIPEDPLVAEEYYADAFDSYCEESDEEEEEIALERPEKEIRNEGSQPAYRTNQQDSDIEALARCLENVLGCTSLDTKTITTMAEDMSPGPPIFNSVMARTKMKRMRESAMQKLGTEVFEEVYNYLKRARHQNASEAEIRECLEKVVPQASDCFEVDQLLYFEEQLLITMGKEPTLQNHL
# Summary of the method: as §1
# [11] = target: 266 human kinases (Homo sapiens, UniProt P12931); conditions: 100 μM
# Summary of the method: as §1
# [12] = target: 266 human kinases (Homo sapiens, UniProt P00533, L858R); conditions: EGFR(L858R)(h); 100 μM
# Summary of the method: as §1
# [13] = target: 266 human kinases (Homo sapiens, UniProt P07948); conditions: Lyn(h); 100 μM
# Summary of the method: as §1
# [14] = target: T3, 266 human kinases (Homo sapiens, UniProt Q96PF2); conditions: TSSK2(h); 100 μM
# T3 sequence (Q96PF2 1-358): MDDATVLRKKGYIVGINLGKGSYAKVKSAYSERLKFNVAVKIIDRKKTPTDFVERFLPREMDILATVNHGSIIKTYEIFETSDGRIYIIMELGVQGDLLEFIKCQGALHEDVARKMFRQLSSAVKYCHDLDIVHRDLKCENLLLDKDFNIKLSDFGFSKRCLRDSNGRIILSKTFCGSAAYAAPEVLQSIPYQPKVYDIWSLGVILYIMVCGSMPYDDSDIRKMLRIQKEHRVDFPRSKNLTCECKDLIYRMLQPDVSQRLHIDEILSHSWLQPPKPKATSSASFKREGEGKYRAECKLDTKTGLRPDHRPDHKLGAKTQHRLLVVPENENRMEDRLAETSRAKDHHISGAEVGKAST
# Summary of the method: as §1
# Sequence of 266 human kinases (Homo sapiens, UniProt P68400) (P68400 whole entry): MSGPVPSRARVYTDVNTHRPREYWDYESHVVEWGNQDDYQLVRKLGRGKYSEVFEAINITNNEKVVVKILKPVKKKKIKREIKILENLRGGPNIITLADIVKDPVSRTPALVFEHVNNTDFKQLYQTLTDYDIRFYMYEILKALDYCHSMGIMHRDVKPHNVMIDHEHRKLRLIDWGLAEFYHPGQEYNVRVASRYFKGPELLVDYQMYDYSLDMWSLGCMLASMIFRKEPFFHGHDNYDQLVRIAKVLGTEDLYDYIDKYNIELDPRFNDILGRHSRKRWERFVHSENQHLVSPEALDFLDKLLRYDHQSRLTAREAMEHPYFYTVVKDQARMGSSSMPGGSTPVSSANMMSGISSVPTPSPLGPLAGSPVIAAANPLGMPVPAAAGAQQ
# Sequence of 266 human kinases (Homo sapiens, UniProt P50613) (P50613 whole entry): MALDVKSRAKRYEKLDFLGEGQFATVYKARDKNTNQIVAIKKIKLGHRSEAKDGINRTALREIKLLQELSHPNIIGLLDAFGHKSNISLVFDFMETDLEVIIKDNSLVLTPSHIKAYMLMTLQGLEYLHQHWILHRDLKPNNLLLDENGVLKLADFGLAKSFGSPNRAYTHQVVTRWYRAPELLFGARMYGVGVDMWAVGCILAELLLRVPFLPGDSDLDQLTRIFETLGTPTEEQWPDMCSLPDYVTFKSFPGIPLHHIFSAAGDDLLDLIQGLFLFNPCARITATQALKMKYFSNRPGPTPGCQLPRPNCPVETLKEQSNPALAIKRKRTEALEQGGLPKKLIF
# Sequence of 266 human kinases (Homo sapiens, UniProt P07948) (P07948 whole entry): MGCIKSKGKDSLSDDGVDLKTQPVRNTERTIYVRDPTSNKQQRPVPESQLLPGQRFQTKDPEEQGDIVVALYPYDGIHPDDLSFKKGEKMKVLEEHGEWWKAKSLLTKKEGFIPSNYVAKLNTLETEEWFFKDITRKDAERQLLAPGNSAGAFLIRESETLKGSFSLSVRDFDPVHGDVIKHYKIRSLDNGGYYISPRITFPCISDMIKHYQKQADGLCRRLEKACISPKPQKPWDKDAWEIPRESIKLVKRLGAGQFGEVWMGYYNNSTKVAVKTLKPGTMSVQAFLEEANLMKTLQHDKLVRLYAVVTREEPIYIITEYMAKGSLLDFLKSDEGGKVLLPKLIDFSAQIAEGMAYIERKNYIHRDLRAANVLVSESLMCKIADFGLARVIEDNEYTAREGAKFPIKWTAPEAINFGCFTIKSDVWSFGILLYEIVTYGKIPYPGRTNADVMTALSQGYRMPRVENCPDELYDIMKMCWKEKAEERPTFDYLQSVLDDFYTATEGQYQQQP
# Sequence of 266 human kinases (Homo sapiens, UniProt Q9BYP7) (Q9BYP7 whole entry): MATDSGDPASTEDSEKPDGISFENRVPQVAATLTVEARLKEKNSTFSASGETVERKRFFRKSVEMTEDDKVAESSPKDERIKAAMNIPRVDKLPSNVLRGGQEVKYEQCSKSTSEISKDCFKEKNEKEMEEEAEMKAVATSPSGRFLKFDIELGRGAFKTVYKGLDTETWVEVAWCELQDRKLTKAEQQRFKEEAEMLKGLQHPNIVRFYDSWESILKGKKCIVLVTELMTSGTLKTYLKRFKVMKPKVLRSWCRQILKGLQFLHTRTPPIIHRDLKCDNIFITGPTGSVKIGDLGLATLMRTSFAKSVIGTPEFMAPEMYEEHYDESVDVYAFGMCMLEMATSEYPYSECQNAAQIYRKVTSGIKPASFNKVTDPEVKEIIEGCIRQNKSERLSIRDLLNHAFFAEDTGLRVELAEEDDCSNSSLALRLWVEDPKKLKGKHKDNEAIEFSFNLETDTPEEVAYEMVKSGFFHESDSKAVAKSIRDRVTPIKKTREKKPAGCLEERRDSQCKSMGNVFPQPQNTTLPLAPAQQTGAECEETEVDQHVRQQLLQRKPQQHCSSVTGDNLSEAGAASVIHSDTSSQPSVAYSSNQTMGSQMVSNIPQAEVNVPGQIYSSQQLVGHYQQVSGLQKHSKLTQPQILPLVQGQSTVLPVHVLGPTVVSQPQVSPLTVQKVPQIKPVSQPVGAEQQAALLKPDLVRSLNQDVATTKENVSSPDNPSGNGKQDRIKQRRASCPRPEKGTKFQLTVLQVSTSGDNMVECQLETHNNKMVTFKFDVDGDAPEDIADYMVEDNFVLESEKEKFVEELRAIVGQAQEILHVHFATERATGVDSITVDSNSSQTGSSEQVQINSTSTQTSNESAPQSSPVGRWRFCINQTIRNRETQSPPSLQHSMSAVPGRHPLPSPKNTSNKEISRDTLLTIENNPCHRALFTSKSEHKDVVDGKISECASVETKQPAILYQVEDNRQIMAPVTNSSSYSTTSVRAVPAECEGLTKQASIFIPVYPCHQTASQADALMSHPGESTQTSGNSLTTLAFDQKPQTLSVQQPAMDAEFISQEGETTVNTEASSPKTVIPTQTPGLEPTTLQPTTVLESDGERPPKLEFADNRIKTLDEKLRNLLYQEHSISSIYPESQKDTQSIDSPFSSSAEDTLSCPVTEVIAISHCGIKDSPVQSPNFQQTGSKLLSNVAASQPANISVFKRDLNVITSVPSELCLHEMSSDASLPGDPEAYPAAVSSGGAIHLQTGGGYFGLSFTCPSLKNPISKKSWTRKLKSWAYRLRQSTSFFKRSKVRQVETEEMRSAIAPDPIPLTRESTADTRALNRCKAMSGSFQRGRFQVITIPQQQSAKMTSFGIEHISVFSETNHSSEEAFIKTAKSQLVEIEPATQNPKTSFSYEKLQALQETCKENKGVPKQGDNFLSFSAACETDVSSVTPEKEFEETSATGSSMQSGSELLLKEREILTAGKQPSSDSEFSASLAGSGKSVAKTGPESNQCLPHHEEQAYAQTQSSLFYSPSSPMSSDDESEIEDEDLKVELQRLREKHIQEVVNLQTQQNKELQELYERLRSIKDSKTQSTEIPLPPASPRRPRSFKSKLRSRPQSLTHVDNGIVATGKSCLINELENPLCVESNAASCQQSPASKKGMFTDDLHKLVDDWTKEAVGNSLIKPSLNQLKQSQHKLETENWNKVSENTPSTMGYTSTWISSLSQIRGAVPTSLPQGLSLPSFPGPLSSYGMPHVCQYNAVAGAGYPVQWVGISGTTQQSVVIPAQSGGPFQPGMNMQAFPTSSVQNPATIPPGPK
# Sequence of 266 human kinases (Homo sapiens, UniProt Q14680) (Q14680 whole entry): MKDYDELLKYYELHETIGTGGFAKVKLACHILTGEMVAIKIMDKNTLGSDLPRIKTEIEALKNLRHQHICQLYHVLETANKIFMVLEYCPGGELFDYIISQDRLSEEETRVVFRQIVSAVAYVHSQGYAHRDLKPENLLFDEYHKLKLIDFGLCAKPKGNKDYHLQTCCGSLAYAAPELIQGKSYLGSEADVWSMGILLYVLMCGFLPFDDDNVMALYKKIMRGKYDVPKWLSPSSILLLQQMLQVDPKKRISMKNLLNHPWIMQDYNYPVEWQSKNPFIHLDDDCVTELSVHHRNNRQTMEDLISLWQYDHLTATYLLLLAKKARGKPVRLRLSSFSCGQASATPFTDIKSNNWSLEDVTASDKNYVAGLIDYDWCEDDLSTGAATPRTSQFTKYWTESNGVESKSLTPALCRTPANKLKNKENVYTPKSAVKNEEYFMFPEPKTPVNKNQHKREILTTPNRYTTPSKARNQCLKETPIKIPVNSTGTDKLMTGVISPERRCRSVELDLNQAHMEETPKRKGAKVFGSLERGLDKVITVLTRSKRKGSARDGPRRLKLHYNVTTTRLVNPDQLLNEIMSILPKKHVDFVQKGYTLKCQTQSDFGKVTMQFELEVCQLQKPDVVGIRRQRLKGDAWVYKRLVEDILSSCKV
Sequence,% activity [1] [%],% activity [2] [%],% activity [3] [%],% activity [4] [%],% activity [5] [%],% activity [6] [%],% activity [7] [%],% activity [8] [%],% activity [9] [%],% activity [10] [%],% activity ([11]; Src(1-530)(h)) [%],% activity ([11]; cSRC(h)) [%],% activity [12] [%],% activity [13] [%],% activity [14] [%]
HRRIKAWLKKIKALARQLGVAA (mammal) [MMI-0500],93,59,9,27,0,72,73,15,218,2,21,30,26,31,92
YARAAARQARAKALNRQLGVA (mammal) [MMI-0200],83,56,97,71,59,93,141,67,118,95,75,32,120,98,91
